Assay results published in the supplement of paper PMC9112550, “Optimization of the antimicrobial peptide Bac7 by deep mutational scanning” (BMC Biology, 2022).

tested on: Escherichia coli TOP10; experiment: shrunken log2 fold change of peptide-encoding DNA abundance (4.5 h post-induction vs induction); higher = less antimicrobial activity (less host growth inhibition); details: time post-induction: 4.5 h; library: site-saturation at positions 5, 18, 19, 20
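Further: peptides expressed intracellularly from a pBAD plasmid library in pooled LB shake-flask culture, induced with 0.3% L-arabinose, DNA abundance read by NGS, three biological replicates, DESeq2 with apeglm shrinkage.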

Row | Sequence | shrunken log2 fold change
1 | RRIRCRPPRLPRPRPRPWNEPRP | -0.705
2 | RRIRFRPPRLPRPRPRPTQWPRP | 0.267
3 | RRIRMRPPRLPRPRPRPLHVPRP | -0.21
4 | RRIRCRPPRLPRPRPRPSTLPRP | -0.686
5 | RRIRLRPPRLPRPRPRPRTVPRP | 1.24
6 | RRIRVRPPRLPRPRPRPMQSPRP | 0.292
7 | RRIRCRPPRLPRPRPRPLRWPRP | 0.613
8 | RRIRQRPPRLPRPRPRPWHYPRP | -0.484
9 | RRIRWRPPRLPRPRPRPRWSPRP | 0.372
10 | RRIRGRPPRLPRPRPRPNDIPRP | -0.528
11 | RRIRMRPPRLPRPRPRPLQLPRP | 0.102
12 | RRIRMRPPRLPRPRPRPIRCPRP | 0.086
13 | RRIRTRPPRLPRPRPRPCDCPRP | -0.0712
14 | RRIRARPPRLPRPRPRPEPYPRP | 0.34
15 | RRIRGRPPRLPRPRPRPVPPPRP | 1.17
16 | RRIRKRPPRLPRPRPRPDWKPRP | -0.0149
17 | RRIRQRPPRLPRPRPRPNIMPRP | -0.462
18 | RRIRFRPPRLPRPRPRPDSYPRP | -0.236
19 | RRIRSRPPRLPRPRPRPDQNPRP | -0.182
20 | RRIRCRPPRLPRPRPRPYGDPRP | -0.217
21 | RRIRERPPRLPRPRPRPNNFPRP | -0.0786
22 | RRIRSRPPRLPRPRPRPIDRPRP | 0.0178
23 | RRIRFRPPRLPRPRPRPCNDPRP | -0.122
24 | RRIRKRPPRLPRPRPRPFHEPRP | -0.154
25 | RRIRLRPPRLPRPRPRPAPEPRP | 0.109

Row | Sequence | shrunken log2 fold change
26 | RRIRFRPPRLPRPRPRPYYLPRP | -0.392
27 | RRIRFRPPRLPRPRPRPSVYPRP | -0.158
28 | RRIRRRPPRLPRPRPRPRSEPRP | 0.342
29 | RRIRERPPRLPRPRPRPFSDPRP | -0.0836
30 | RRIRHRPPRLPRPRPRPDALPRP | 0.227
31 | RRIRRRPPRLPRPRPRPCQMPRP | 0.0273
32 | RRIRFRPPRLPRPRPRPGTSPRP | -0.0716
33 | RRIRQRPPRLPRPRPRPNRYPRP | -0.0216
34 | RRIRYRPPRLPRPRPRPRTTPRP | -0.011
35 | RRIRERPPRLPRPRPRPAYSPRP | -0.0646
36 | RRIRVRPPRLPRPRPRPMPPPRP | 0.44
37 | RRIRGRPPRLPRPRPRPIWCPRP | 0.0438
38 | RRIRVRPPRLPRPRPRPILHPRP | 1.12
39 | RRIRTRPPRLPRPRPRPQRYPRP | -0.127
40 | RRIRLRPPRLPRPRPRPMMCPRP | 0.00205
41 | RRIRQRPPRLPRPRPRPCGWPRP | 0.502
42 | RRIRERPPRLPRPRPRPRTMPRP | -0.135
43 | RRIRSRPPRLPRPRPRPWCYPRP | -0.263
44 | RRIRCRPPRLPRPRPRPNTMPRP | -0.682
45 | RRIRQRPPRLPRPRPRPAVRPRP | -0.0154
46 | RRIRLRPPRLPRPRPRPLWSPRP | 0.0537
47 | RRIRSRPPRLPRPRPRPHCNPRP | -0.36
48 | RRIRQRPPRLPRPRPRPDVHPRP | -0.304
49 | RRIRSRPPRLPRPRPRPVVKPRP | -0.14
50 | RRIRKRPPRLPRPRPRPNCLPRP | -0.0339

Row | Sequence | shrunken log2 fold change
51 | RRIRMRPPRLPRPRPRPHDCPRP | 0.0419
52 | RRIRNRPPRLPRPRPRPRVQPRP | -0.00489
53 | RRIRHRPPRLPRPRPRPMLYPRP | -1.49
54 | RRIRWRPPRLPRPRPRPAPMPRP | 0.615
55 | RRIRDRPPRLPRPRPRPAKCPRP | 0.124
56 | RRIRKRPPRLPRPRPRPGIYPRP | 0.107
57 | RRIRYRPPRLPRPRPRPRRNPRP | -0.268
58 | RRIRFRPPRLPRPRPRPFHLPRP | -0.391
59 | RRIRHRPPRLPRPRPRPTQSPRP | 0.113
60 | RRIRCRPPRLPRPRPRPQCGPRP | -0.609
61 | RRIRLRPPRLPRPRPRPKQEPRP | -0.00888
62 | RRIRNRPPRLPRPRPRPHIYPRP | -0.0215
63 | RRIRERPPRLPRPRPRPHVYPRP | -0.764
64 | RRIRSRPPRLPRPRPRPSWFPRP | -0.268
65 | RRIRLRPPRLPRPRPRPRGHPRP | 0.078
66 | RRIRFRPPRLPRPRPRPNHSPRP | -0.832
67 | RRIRARPPRLPRPRPRPKEAPRP | 0.516
68 | RRIRRRPPRLPRPRPRPKVWPRP | 0.382
69 | RRIRTRPPRLPRPRPRPCEEPRP | 0.0871
70 | RRIRQRPPRLPRPRPRPTANPRP | 0.197
71 | RRIRARPPRLPRPRPRPDHEPRP | -0.0137
72 | RRIRCRPPRLPRPRPRPYLVPRP | -0.584
73 | RRIRWRPPRLPRPRPRPHFQPRP | -0.183
74 | RRIRERPPRLPRPRPRPYVNPRP | 0.0121
75 | RRIRCRPPRLPRPRPRPQWAPRP | 0.0425

Row | Sequence | shrunken log2 fold change
76 | RRIRDRPPRLPRPRPRPKIWPRP | 0.127
77 | RRIRMRPPRLPRPRPRPANYPRP | -0.394
78 | RRIRKRPPRLPRPRPRPMSEPRP | 0.148
79 | RRIRMRPPRLPRPRPRPAGEPRP | 1.87
80 | RRIRTRPPRLPRPRPRPEESPRP | -0.0116
81 | RRIRTRPPRLPRPRPRPVYRPRP | -0.361
82 | RRIRNRPPRLPRPRPRPIASPRP | 0.0215
83 | RRIRFRPPRLPRPRPRPYYCPRP | -0.74
84 | RRIRVRPPRLPRPRPRPKFQPRP | -0.274
85 | RRIRFRPPRLPRPRPRPQEKPRP | -0.0525
86 | RRIRNRPPRLPRPRPRPHSWPRP | 0.00366
87 | RRIRARPPRLPRPRPRPKHTPRP | 0.264
88 | RRIRTRPPRLPRPRPRPSTNPRP | -0.488
89 | RRIRTRPPRLPRPRPRPNMMPRP | -0.237
90 | RRIRNRPPRLPRPRPRPCSWPRP | -0.117
91 | RRIRDRPPRLPRPRPRPQESPRP | -0.257
92 | RRIRMRPPRLPRPRPRPDIIPRP | 1.42
93 | RRIRCRPPRLPRPRPRPPDGPRP | -0.0323
94 | RRIRCRPPRLPRPRPRPWIVPRP | -0.0435
95 | RRIRIRPPRLPRPRPRPHLFPRP | -0.359
96 | RRIRWRPPRLPRPRPRPTLGPRP | 0.079
97 | RRIRQRPPRLPRPRPRPDCCPRP | -0.0188
98 | RRIRHRPPRLPRPRPRPRKTPRP | 0.00946
99 | RRIRYRPPRLPRPRPRPCIRPRP | -0.023
100 | RRIRSRPPRLPRPRPRPGHKPRP | -0.112

Row | Sequence | shrunken log2 fold change
101 | RRIRPRPPRLPRPRPRPPPVPRP | 0.744
102 | RRIRWRPPRLPRPRPRPSKLPRP | -0.315
103 | RRIRDRPPRLPRPRPRPKNDPRP | -0.103
104 | RRIRARPPRLPRPRPRPEELPRP | 0.499
105 | RRIRQRPPRLPRPRPRPWCHPRP | -0.169
106 | RRIRQRPPRLPRPRPRPNHTPRP | -0.0975
107 | RRIRRRPPRLPRPRPRPHPLPRP | 0.211
108 | RRIRVRPPRLPRPRPRPVPQPRP | 0.324
109 | RRIRARPPRLPRPRPRPGHHPRP | 0.127
110 | RRIRARPPRLPRPRPRPNAGPRP | 0.315
111 | RRIRMRPPRLPRPRPRPTHSPRP | 0.483
112 | RRIRTRPPRLPRPRPRPDTGPRP | -0.0906
113 | RRIRCRPPRLPRPRPRPFGKPRP | -0.0592
114 | RRIRSRPPRLPRPRPRPAAAPRP | 0.868
115 | RRIRPRPPRLPRPRPRPYPFPRP | -0.0133
116 | RRIRHRPPRLPRPRPRPKLWPRP | 0.392
117 | RRIRVRPPRLPRPRPRPIKGPRP | -0.155
118 | RRIRFRPPRLPRPRPRPYKCPRP | -0.208
119 | RRIRPRPPRLPRPRPRPAEPPRP | -0.0331
120 | RRIRCRPPRLPRPRPRPWLDPRP | -0.273
121 | RRIRPRPPRLPRPRPRPVCWPRP | 0.533
122 | RRIRNRPPRLPRPRPRPHLGPRP | -0.317
123 | RRIRDRPPRLPRPRPRPWVYPRP | -0.0138
124 | RRIRCRPPRLPRPRPRPPKYPRP | -0.291
125 | RRIRGRPPRLPRPRPRPEQEPRP | 0.0952
